Measurements: doi:10.1101/2022.09.16.508217 (bioRxiv, 2022)

T1: yeast PCNA, N-terminally His-tagged Pol30 (S. cerevisiae, UniProt P15873 1-258)
T1 sequence: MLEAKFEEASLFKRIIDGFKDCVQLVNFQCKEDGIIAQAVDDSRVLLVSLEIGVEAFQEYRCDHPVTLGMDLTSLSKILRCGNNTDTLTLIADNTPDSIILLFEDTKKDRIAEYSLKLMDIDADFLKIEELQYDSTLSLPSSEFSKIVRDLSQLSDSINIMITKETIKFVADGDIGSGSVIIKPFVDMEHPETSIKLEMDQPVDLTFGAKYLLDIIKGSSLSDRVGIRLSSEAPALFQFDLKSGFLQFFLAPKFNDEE


Legend:
[1] = target: chicken N-terminally His-tagged PCNA (recombinant) (chicken, UniProt Q9DEA3 1-262); experiment: pull-down
[2] = target: T1, yeast PCNA, N-terminally His-tagged …; experiment: pull-down

chicken N-terminally His-tagged PCNA (recombinant), sequence (Q9DEA3 whole entry): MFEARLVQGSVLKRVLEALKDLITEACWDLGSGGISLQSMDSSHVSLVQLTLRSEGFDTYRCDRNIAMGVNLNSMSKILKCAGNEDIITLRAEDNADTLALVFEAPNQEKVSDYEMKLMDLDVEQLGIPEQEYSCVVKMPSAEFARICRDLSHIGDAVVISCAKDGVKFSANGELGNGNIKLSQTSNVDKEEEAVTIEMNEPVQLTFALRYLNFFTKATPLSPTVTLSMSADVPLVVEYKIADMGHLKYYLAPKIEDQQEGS

Binder | binding result [1] | binding result [2]
GST-NIPBL WT (C-terminus of chicken NIPBL, aa 2582-2783, fused to GST) (domain or fragment) ANSKITEEVKRSIVKQYLDFKLLMEHLDPDEEEEDGEVSASTNARNKAITSLLGGGSPKNNAAETEDDESDGEDRGGGTSGSLRRSKRNSDSTELASQMNESVDVMDVIAICCPKYKDRPQIARVVQKTSNGFSVQWMAGSYSGSWTEAKRRDGRKLVPWVDTIKESDIIYKKIALTSANKLTNKVVQTLRSLYAAKDGTSS | binds | 
GST-NIPBL pip1 (chicken NIPBL aa 2582-2783 with PIP1 mutated Q2597A,L2599A,F2601A, fused to GST) (domain or fragment) ANSKITEEVKRSIVKAYADAKLLMEHLDPDEEEEDGEVSASTNARNKAITSLLGGGSPKNNAAETEDDESDGEDRGGGTSGSLRRSKRNSDSTELASQMNESVDVMDVIAICCPKYKDRPQIARVVQKTSNGFSVQWMAGSYSGSWTEAKRRDGRKLVPWVDTIKESDIIYKKIALTSANKLTNKVVQTLRSLYAAKDGTSS | binds | 
TNKVVQTLRSLYAAKDGTSS [GST-NIPBL-PIP2 (chicken NIPBL aa 2764-2783 fused to GST)] | binds | 
YSSNGKLLTYFRKHVKDT (domain or fragment) [GSTscc2PIP (GST fused with the last 18 amino acids of yeast Scc2, aa 1476-1493, wild-type PIP)] |  | binds
TNKVVATARSLAAAKDGTSS [GST-NIPBL-pip2 (chicken NIPBL aa 2764-2783 with Q2769A,L2771A,Y2775A, fused to GST)] | binds | 
